In patent publication US5767073, “D4 gene and methods of use thereof” (Beth Israel Hospital Association, dated 1998):

What was measured:
[1] = target: rac 1 (Homo sapiens (Human)) (UniProt P63000); assay: inferred from the dose response of GDI activity; reference rhoGDI
[2] = target: T1, CDC42Hs (human, UniProt P60953); assay: as above
[3] = target: T1, CDC42Hs
[4] = target: T1, CDC42Hs; assay: cell-based or functional assay
[5] = target: CDC42Hs (human) (UniProt P60953); assay: inferred from the dose response of GDI activity; reference rhoGDI
[6] = target: CDC42Hs (human) (UniProt P60953)
[7] = target: CDC42Hs (human) (UniProt P60953); remark: listed apart in the source

human D4 protein
times lower binding than rhoGDI [1]: 30 to 40 times | times lower binding than rhoGDI [2]: 30 to 40 times | GDI activity (times more concentration than rhoGDI) [3]: > 10

B1: GST-GN LC (chimera of the entire rho GDI sequence except that the carboxyl terminal 33 amino acids were from LD4) (other)
chain: MAEQEPTAEQLAQIAAENEEDEHSVNYKPPAQKSIQEIQELDKDDESLRKYKEALLGRVAVSADPNVPNVVVTGLTLVCSSAPGPLELDLTGDLESFKKQSFVLKEGVEYRIKISFRVNREIVSGMKYIQHTYRKGVKIDKTDYMVGSYGPRAEEYEFLTPVEEAPKGMLAQDTYHNKSFFTDDDKQDHLSWEWNLSIKKEWTE
GDP dissociation inhibition assay [4]: ≥ 20 fold less effective than rho GDI

B2: GST-mD4 (glutathione-S-transferase fusion protein of murine D4) (protein)
chain: MTEKDAQPQLEEADDDLDSKLNYKPPPQKSLKELQEMDKDDESLTKYKKTLLGDVPVVADPTVPNVTVTRLSLVCDSAPGPITMDLTGDLEALKKDTFVLKEGIEYRVKINFKVNKDIVSGLKYVQHTYRTGMRVDKATFMVGSYGPRPEEYEFLTPVEEAPKGMLARGTYHNKSFFTDDDKQDHLTWEWNLAIKKDWTEZ
times lower binding than rhoGDI [5]: 30 to 40 times | apparent EC50, GDP dissociation inhibition assay [6]: 7 to 8 µM | GDI activity (times more concentration than rhoGDI) [7]: > 10

B3: GST-LD4 (glutathione-S-transferase fusion protein of LD4) (other)
chain: MTEKAPEPHVEEDDDDELDSKLNYKPPPQKSLKELQEMDKDDESLIKYKKTLLGDGPVVTDPKAPNVVVTRLTLVCESAPGPITMDLTGDLEALKKETIVLKEGSEYRVKIHFKVNRDIVSGLKYVQHTYRTGVKVDKATFMVGSYGPRPEEYEFLTPVEEAPKGMLAQDTYHNKSFFTDDDKQDHLSWEWNLSIKKEWTE
apparent EC50, GDP dissociation inhibition assay [4]: 7 to 8 µM
